Results published in patent US20250289899A1 (Genmab, published 2025).

Assays:
[1] = target: T1, recombinant His-tagged human FcγRIIa (167-His [H]) (human, UniProt P12318 34-218, limits assumed); assay: SPR (Biacore), His-tagged FcγRIIa-H captured on anti-His chip, antibody in solution, resonance units against antibody concentration
T1 construct: Bought; captured on anti-His chip; also called FcγRIIa-H; not shown: His tag
T1 sequence (looked up): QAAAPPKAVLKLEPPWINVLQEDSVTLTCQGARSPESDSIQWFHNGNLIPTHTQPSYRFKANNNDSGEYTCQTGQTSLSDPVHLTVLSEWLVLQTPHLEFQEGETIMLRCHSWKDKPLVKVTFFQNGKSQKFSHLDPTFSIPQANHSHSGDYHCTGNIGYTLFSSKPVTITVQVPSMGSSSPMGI

[2] = target: T2, human CD27, full length, on cells (T cells, transfected HEK293F cells, Daudi cells, NFκB-luc2/CD27 Jurkat … (human, UniProt P26842 20-240)); assay: flow cytometry on CD4+ T cells in human PBMC, FITC goat anti-human IgG F(ab')2, median FITC
T2 construct: Residues 1-19 are stated to be the signal peptide; also called TNFRSF7
T2 sequence: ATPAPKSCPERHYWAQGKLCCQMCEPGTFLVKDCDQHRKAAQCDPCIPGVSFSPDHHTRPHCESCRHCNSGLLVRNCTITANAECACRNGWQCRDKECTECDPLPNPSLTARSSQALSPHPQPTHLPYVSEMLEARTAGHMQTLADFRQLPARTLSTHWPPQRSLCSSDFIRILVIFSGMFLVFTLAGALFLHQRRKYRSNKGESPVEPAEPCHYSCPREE
Procedure: Binding of IgG1-CD27-A-P329R-E345R to CD27 on human healthy donor T cells was characterized in more detail using flow cytometry. Anti-HIV gp120 antibody variant IgG1-b12-P329R-E345R was used as non-binding control antibody (ctrl). Human PBMCs were isolated from buffy coats obtained from human healthy donors. PBMC (1×10⁵ cells/well) in FACS buffer were added to polystyrene 96-well round-bottom plates (Greiner bio-one, Cat #650101) and pelleted by centrifugation at 300×g for 3 min at 4° C. The cells were resuspended in 50 μL/well serial antibody dilutions in FACS buffer (range 0.0015 to 10 μg/mL in 3-fold dilution steps) and incubated for 30 min at 4° C. Cells were pelleted, washed twice with FACS buffer and incubated in 50 μL/well with FITC-conjugated secondary antibody (FITC AffiniPure F(ab′)₂ fragment goat anti-human IgG, F(ab′)₂ fragment specific, Jackson ImmunoResearch, Cat #109-096-097, diluted 1:100) for 30 min at 4° C. in the dark. […] The samples were measured by flow cytometry on an LSRFortessa (BD) flow cytometer and analyzed using FlowJo software. Binding curves were analyzed using non-linear regression (sigmoidal dose-response with variable slope) using GraphPad Prism 8 software.

[3] = target: T3, human C1q (from normal human serum) (human, UniProt P02745 23-245; P02746 28-253; P02747 29-245); assay: flow cytometry, C1q (20% normal human serum) on human T cells pre-incubated with the antibody, FITC rabbit anti-human C1q, median MFI FITC; antibody concentration varied
T3 construct: 20% normal human serum was the source of C1q
Procedure: The P329R mutation was previously described to reduce interaction of IgG1 antibodies with C1q and FcgR (Overdijk et al, Molecular Cancer Therapeutics 2020). The effect of the P329R mutation on C1q binding of IgG1-CD27-A comprising the E345R mutation was tested in cellular C1q binding assays in vitro using human healthy donor T cells. Anti-HIV gp120 antibody IgG1-b12-F405L was used as non-binding isotype control antibody (ctrl). […] T cells (2×10⁶ cells/well) were pre-incubated in polystyrene 96-well round-bottom plates with antibody dilution series (8× five-fold dilution starting at 15 μg/mL final assay concentration) for 15 min at 37° C. to allow the antibodies to bind to the T cells. Then, cells were cooled on ice, supplemented with NHS as a source of human C1q (20% NHS final assay concentration) and incubated on ice for 45 min. Cells were subsequently incubated on ice with FITC-labeled Rabbit anti-human C1q antibody (DAKO, Cat #F0254; 20 μg/mL) for 30 min and resuspended in FACS buffer with TO-PRO-3 (ThermoFisher, Cat #T3605; 1:5,000 dilution). C1q binding was determined by flow cytometry measuring the FITC signal on live cells.

[4] = target: T4, recombinant His-tagged human FcγRIIb (human, UniProt P31994 43-217); assay: SPR (Biacore), His-tagged FcγRIIb captured on anti-His chip, antibody in solution, resonance units against antibody concentration
T4 construct: Bought; captured on anti-His chip; not shown: His tag
T4 sequence (looked up): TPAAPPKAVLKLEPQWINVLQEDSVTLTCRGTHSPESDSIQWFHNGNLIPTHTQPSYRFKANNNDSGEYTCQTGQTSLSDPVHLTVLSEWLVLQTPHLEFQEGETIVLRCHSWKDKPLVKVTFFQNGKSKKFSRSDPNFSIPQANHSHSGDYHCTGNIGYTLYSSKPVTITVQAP

T3 sequence (P02745 23-245 limits assumed, chain 1 of 3): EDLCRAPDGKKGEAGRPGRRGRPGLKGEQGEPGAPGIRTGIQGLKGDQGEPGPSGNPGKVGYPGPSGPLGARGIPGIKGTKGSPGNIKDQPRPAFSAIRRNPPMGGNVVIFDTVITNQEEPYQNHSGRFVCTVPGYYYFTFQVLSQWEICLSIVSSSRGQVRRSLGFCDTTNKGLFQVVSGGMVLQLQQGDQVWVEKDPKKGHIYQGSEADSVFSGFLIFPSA
T3 sequence (P02746 28-253 limits assumed, chain 2 of 3): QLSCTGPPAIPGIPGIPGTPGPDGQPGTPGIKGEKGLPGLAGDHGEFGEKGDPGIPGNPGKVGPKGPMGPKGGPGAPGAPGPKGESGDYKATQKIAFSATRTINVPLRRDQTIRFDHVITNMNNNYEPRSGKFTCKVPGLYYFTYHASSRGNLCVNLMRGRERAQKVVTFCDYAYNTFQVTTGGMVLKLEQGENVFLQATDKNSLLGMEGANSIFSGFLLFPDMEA
T3 sequence (P02747 29-245 limits assumed, chain 3 of 3): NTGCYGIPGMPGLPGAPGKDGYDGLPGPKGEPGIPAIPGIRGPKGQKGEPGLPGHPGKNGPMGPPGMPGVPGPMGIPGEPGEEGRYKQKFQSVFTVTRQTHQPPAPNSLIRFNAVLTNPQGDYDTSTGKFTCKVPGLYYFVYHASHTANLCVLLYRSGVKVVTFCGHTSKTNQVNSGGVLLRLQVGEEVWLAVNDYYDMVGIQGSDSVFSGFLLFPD

binding result [1]: no binding (tested: 10,000 nM)
EC50 (read off the curve) [2]: ~0.03 mg/L
binding result [3]: no binding (tested: 15 µg/mL)
binding result [4]: no binding (tested: 10,000 nM)
B1: IgG1-CD27-A-P329R-E345R (antibody)
heavy: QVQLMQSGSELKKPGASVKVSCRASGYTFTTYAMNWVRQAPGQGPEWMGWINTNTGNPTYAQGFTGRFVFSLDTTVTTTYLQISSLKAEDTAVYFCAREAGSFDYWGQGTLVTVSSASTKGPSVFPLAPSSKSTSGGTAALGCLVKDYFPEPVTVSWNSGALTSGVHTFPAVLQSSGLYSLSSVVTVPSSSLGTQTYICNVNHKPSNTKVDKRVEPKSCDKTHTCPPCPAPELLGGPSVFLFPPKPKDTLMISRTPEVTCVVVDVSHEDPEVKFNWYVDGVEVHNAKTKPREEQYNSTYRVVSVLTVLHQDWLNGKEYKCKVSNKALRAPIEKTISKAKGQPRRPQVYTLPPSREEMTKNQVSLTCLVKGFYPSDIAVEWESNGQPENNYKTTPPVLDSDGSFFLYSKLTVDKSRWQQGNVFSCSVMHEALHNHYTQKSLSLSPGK
light: QSALTQPASVSGSPGQSITISCTGTSSDVYYYNYVSWYQQHPGRAPKLVIYDVSNRPSGVSNRFSGSKSGNTASLTISGLRAEDEADYYCSSYTVNRVWVFGGGTKLTVLGQPKAAPSVTLFPPSSEELQANKATLVCLISDFYPGAVTVAWKADSSPVKAGVETTTPSKQSNNKYAASSYLSLTPEQWKSHRSYSCQVTHEGSTVEKTVAPTECS
notes: also called IgG1-CD27-A-E345R-P329R
